According to WO2016008851A1:

Key:
[1] = target: Endogenous human IL-1B (THP1 supernatants) (human) (UniProt P01584); assay: cell-based or functional assay
[2] = target: recombinant human IL-1B (human) (UniProt P01584); assay: cell-based or functional assay

IC90, Endogenous human IL-1 B (THP1 supernatants), HEK blue [1]: 0.292 nM | IC50, rec. human IL-1 B, HEK blue [2]: 0.068 nM | IC50, rec. human IL-1 B, MRC-5 (IL-6 production) [2]: 0.032 nM | IC90, rec. human IL-1 B, HEK blue [2]: 0.503 nM | IC90, rec. human IL-1 B, MRC-5 (IL-6 production) [2]: 0.449 nM
Substance: ACZ885 (disclosed in WO 2002/016436) (antibody)
